# Test results from patent US11802878B2, “Protein sequencing method and reagents” (The Governing Council of the University of Toronto, priority 2009, dated 2023).
# B1: ClpS WT: truncated wildtype E. coli ClpS polypeptide, 84 amino acids, SEQ ID NO: 1, displayed on phage (protein, listed as Escherichia coli)
# chain: KPPSMYKVILVNDDYTPMEFVIDVLQKFFSYDVERATQLMLAVHYQGKAICGVFTAEVAETKVAMVNKYARENEHPLLCTLEKA
# modifications: phage display
# Legend:
# [1] = system: immobilized biotinylated peptide, N-terminal amino acid V (X-SDGMFTAGSLIGK(biotin)); assay: Phage ELISA, binding to immobilized peptide, N-terminal V
# Method: (§1) Given the discovery that the specificity pocket library was functionally robust, selections against synthetic peptide ligands were carried out using this library. The specificity pocket library was selected against 20 biotinylated peptides, each with a different N-terminal residue atop a common leader sequence (X-SDGMFTAGSLIGK(biotin)) (SEQ ID NO: 4). The peptides were immobilized individually to the bottom wells of a microtiter plate. […] Consequently, ClpS mutant variants that prefer other residues in addition to the ligand ‘bait’ would bind those competing peptides in solution and simply be washed away. Only selective variants that bound to the immobilized target(s) were amplified during each subsequent round of selection.
# (§2) To evaluate the specificity and selectivity of individual clones, both wild-type ClpS and the selected variants' binding to each of the biotinylated peptides independently were tested. The same approach was also used to monitor the progress of the selections and to prioritize particular pools of phage for further investigation.
# (§3) Promising single clones were picked from the selection pools and their specificity was evaluated using the same panel of biotinylated peptides and various amounts of phage supernatant. […] Accordingly, Variant 1 represents a selective N-terminal amino acid capture probe for tryptophan useful for the sequencing methods described herein. Variant 1 also represents a useful scaffold for performing further generation and selection of variants with desirable properties for use as additional N-terminal amino acid capture probes.
# (§4) The selection and ELISA protocols are very similar. Briefly, each well of a 96-well Maxisorp plate was coated overnight at 4° C. with 100 μl of 10 μg/ml neutravidin in PBS, or 1:500 dilution of anti-FLAG antibody. […]
# (§5) For the ELISA readouts, 100 μl of pH adjusted phage supernatant or polyethylene glycol (PEG) precipitated concentrated phage was added to appropriate wells and allowed to bind for 1 hour at 4° C. […] The reaction was stopped by addition of 90 μl of 1M H3PO4 and the absorbance at A450 nm was read.
# [2] = system: immobilized biotinylated peptide, N-terminal amino acid H (X-SDGMFTAGSLIGK(biotin)); assay: Phage ELISA, binding to immobilized peptide, N-terminal H
# Method: as §1, §2, §3, §4, §5
# [3] = system: immobilized biotinylated peptide, N-terminal amino acid E (X-SDGMFTAGSLIGK(biotin)); assay: Phage ELISA, binding to immobilized peptide, N-terminal E
# Method: as §1, §2, §3, §4, §5
# [4] = system: immobilized biotinylated peptide, N-terminal amino acid C (X-SDGMFTAGSLIGK(biotin)); assay: Phage ELISA, binding to immobilized peptide, N-terminal C
# Method: as §1, §2, §3, §4, §5
# [5] = system: immobilized biotinylated peptide, N-terminal amino acid W (X-SDGMFTAGSLIGK(biotin)); assay: Phage ELISA, binding to immobilized peptide, N-terminal W
# Method: as §1, §2, §3, §4, §5
# [6] = system: immobilized biotinylated peptide, N-terminal amino acid M (X-SDGMFTAGSLIGK(biotin)); assay: Phage ELISA, binding to immobilized peptide, N-terminal M
# Method: as §1, §2, §3, §4, §5
# [7] = system: immobilized biotinylated peptide, N-terminal amino acid D (X-SDGMFTAGSLIGK(biotin)); assay: Phage ELISA, binding to immobilized peptide, N-terminal D
# Method: as §1, §2, §3, §4, §5
# [8] = system: immobilized biotinylated peptide, N-terminal amino acid N (X-SDGMFTAGSLIGK(biotin)); assay: Phage ELISA, binding to immobilized peptide, N-terminal N
# Method: as §1, §2, §3, §4, §5
# [9] = system: immobilized biotinylated peptide, N-terminal amino acid P (X-SDGMFTAGSLIGK(biotin)); assay: Phage ELISA, binding to immobilized peptide, N-terminal P
# Method: as §1, §2, §3, §4, §5
# [10] = system: immobilized biotinylated peptide, N-terminal amino acid F (X-SDGMFTAGSLIGK(biotin)); assay: Phage ELISA, binding to immobilized peptide, N-terminal F
# Method: as §1, §2, §3, §4, §5
# [11] = system: panel of 20 biotinylated peptides, each with a different N-terminal residue (X-SDGMFTAGSLIGK(biotin)); assay: Phage ELISA specificity profile over the panel of biotinylated peptides; assay type: binding; settings: phage displayed; result in words
# Method: as §1
# To evaluate the specificity and selectivity of individual clones, both wild-type ClpS and the selected variants' binding to each of the biotinylated peptides independently were tested. […]
# Promising single clones were picked from the selection pools and their specificity was evaluated using the same panel of biotinylated peptides and various amounts of phage supernatant. […]
# as §5
# [12] = system: immobilized biotinylated peptide, N-terminal amino acid Y (X-SDGMFTAGSLIGK(biotin)); assay: Phage ELISA, binding to immobilized peptide, N-terminal Y
# Method: as §1, §2, §3, §4, §5
# [13] = system: immobilized biotinylated peptide, N-terminal amino acid G (X-SDGMFTAGSLIGK(biotin)); assay: Phage ELISA, binding to immobilized peptide, N-terminal G
# Method: as §1, §2, §3, §4, §5
# [14] = system: immobilized biotinylated peptide, N-terminal amino acid S (X-SDGMFTAGSLIGK(biotin)); assay: Phage ELISA, binding to immobilized peptide, N-terminal S
# Method: as §1, §2, §3, §4, §5
# [15] = system: leucine, phenylalanine, tyrosine and tryptophan N-termini; settings: Schuenemann et al. 2009; Tasaki et al. 2009; cited from earlier work
# [16] = system: immobilized biotinylated peptide, N-terminal amino acid K (X-SDGMFTAGSLIGK(biotin)); assay: Phage ELISA, binding to immobilized peptide, N-terminal K
# Method: as §1, §2, §3, §4, §5
# [17] = system: immobilized biotinylated peptide, N-terminal amino acid A (X-SDGMFTAGSLIGK(biotin)); assay: Phage ELISA, binding to immobilized peptide, N-terminal A
# Method: as §1, §2, §3, §4, §5
# [18] = system: immobilized biotinylated peptide, N-terminal amino acid T (X-SDGMFTAGSLIGK(biotin)); assay: Phage ELISA, binding to immobilized peptide, N-terminal T
# Method: as §1, §2, §3, §4, §5
molecule,measurement,setting,value
B1,phage ELISA binding signal,"[1]; N-terminal V, phage 10X, sub Fab",−0.09
same,phage ELISA binding signal,"[1]; N-terminal amino acid V, Table 1",−0.09
same,phage ELISA binding signal,"[2]; N-terminal H, phage 10X, sub Fab",−0.03
same,phage ELISA binding signal,"[2]; N-terminal amino acid H, Table 1",−0.03
same,phage ELISA binding signal,"[3]; N-terminal E, phage 10X, sub Fab",−0.26
same,phage ELISA binding signal,"[3]; N-terminal amino acid E, Table 1",−0.26
same,phage ELISA binding signal,"[4]; N-terminal C, phage 10X, sub Fab",−0.23
same,phage ELISA binding signal,"[4]; N-terminal amino acid C, Table 1",−0.23
same,phage ELISA binding signal,"[5]; N-terminal W, phage 10X, sub Fab",0.77
same,phage ELISA binding signal,"[5]; N-terminal amino acid W, Table 1",0.77
same,phage ELISA binding signal,"[6]; N-terminal M, phage 10X, sub Fab",−0.11
same,phage ELISA binding signal,"[6]; N-terminal amino acid M, Table 1",−0.11
same,phage ELISA binding signal,"[7]; N-terminal D, phage 10X, sub Fab",−0.29
same,phage ELISA binding signal,"[7]; N-terminal amino acid D, Table 1",−0.29
same,phage ELISA binding signal,"[8]; N-terminal N, phage 10X, sub Fab",−0.05
same,phage ELISA binding signal,"[8]; N-terminal amino acid N, Table 1",−0.05
same,phage ELISA binding signal,"[9]; N-terminal P, phage 10X, sub Fab",−0.07
same,phage ELISA binding signal,"[9]; N-terminal amino acid P, Table 1",−0.07
same,phage ELISA binding signal,"[10]; N-terminal F, phage 10X, sub Fab",1.81
same,phage ELISA binding signal,"[10]; N-terminal amino acid F, Table 1",1.81
same,binding specificity / preference for N-terminal amino acids,[11],"clear preference for Leu, Tyr, Phe and, more weakly, Trp peptides"
same,phage ELISA binding signal,"[12]; N-terminal Y, phage 10X, sub Fab",1.08
same,phage ELISA binding signal,"[12]; N-terminal amino acid Y, Table 1",1.08
same,phage ELISA binding signal,"[13]; N-terminal G, phage 10X, sub Fab",−0.04
same,phage ELISA binding signal,"[13]; N-terminal amino acid G, Table 1",−0.04
same,phage ELISA binding signal,"[14]; N-terminal S, phage 10X, sub Fab",−0.01
same,phage ELISA binding signal,"[14]; N-terminal amino acid S, Table 1",−0.01
same,affinities,[15],single-digit micromolar to nanomolar
same,phage ELISA binding signal,"[16]; N-terminal K, phage 10X, sub Fab",0.05
same,phage ELISA binding signal,"[16]; N-terminal amino acid K, Table 1",0.05
same,phage ELISA binding signal,"[17]; N-terminal A, phage 10X, sub Fab",−0.29
same,phage ELISA binding signal,"[17]; N-terminal amino acid A, Table 1",−0.29
same,phage ELISA binding signal,"[18]; N-terminal T, phage 10X, sub Fab",0.01
same,phage ELISA binding signal,"[18]; N-terminal amino acid T, Table 1",0.01
